According to patent publication US20160304613A1 (Genentech, published 2016):

B1: YW64.3 (antibody, human IgG1, V domains shown)
VH: EVQLVESGGGLVQPGGSLRLSCAASGFSFSSEPISWVRQAPGKGLEWVSSITGKNGYTYYADSVKGRFTISADTSKNTAYLQMNSLRAEDTAVYYCARWGKKVYGMDVWGQGTLVTVSS
VL: DIQMTQSPSSLSASVGDRVTITCRASQSISSYLAWYQQKPGKAPKLLIYGASSRASGVPSRFSGSGSGTDFTLTISSLQPEDFATYYCQQYMSVPITFGQGTKVEIKR
notes: full length human IgG1 (CHO) in ELISA, SPR and FACS; also called anti-NRP1^A; anti-NRP^A
B2: YW107.4.87 (antibody, V domains shown)
VH: EVQLVESGGGLVQPGGSLRLSCAASGFTFSSYAMSWVRQAPGKGLEWVSQISPAGGYTNYADSVKGRFTISADTSKNTAYLQMNSLRAEDTAVYYCARELPYYRMSKVMDVWGQGTLVTVSS
VL: DIQMTQSPSSLSASVGDRVTITCRASQYFSSYLAWYQQKPGKAPKLLIYGASSRASGVPSRFSGSGSGTDFTLTISSLQPEDFATYYCQQYLGSPPTFGQGTKVEIKR
notes: Monovalent Fab on phage in the phage ELISA; also called anti-NRP1^B; anti-NRP^B

Experiments:
murine NRP1 [1] = target: T1, murine NRP1 (murine, UniProt P97333 22-641); experiment: SPR (BIAcore-3000), IgG immobilized, NRP1 injected, 25 C
T1 construct: range 1-641; Recombinant soluble protein; also called mNRP1; murine neuropilin-1
Procedure: (§1) Association rates (kₒₙ) and dissociation rates (koff) were calculated using a simple one-to-one Langmuir binding model (BIAcore Evaluation Software version 3.2). The equilibrium dissociation constant (Kd) was calculated as the ratio koff/kₒₙ.
(§2) (See Materials and Methods).

human NRP1 [2] = target: T2, human NRP1 (human, UniProt O14786 22-641); experiment: as above
T2 construct: range 1-641; Recombinant soluble protein; also called hNRP1; human neuropilin-1
Procedure: as §1, §2

murine NRP2 [3] = target: T3, murine NRP2 (murine, UniProt O35375 23-864, limits assumed); experiment: ELISA, antigen-coated wells (2 µg/ml), IgG at 10 µg/ml, detected with anti-human IgG HRP, OD450nm
T3 construct: Coated on wells in ELISA and injected in SPR; construct not described; In the Sema3F collapse assay it is the endogenous NRP2 of mouse E17 hippocampal neurons; also called mNRP2

human NRP2 [4] = target: T4, human NRP2 (human, UniProt O60462 23-864, limits assumed); experiment: as above
T4 construct: Coated on wells in ELISA and injected in SPR; construct not described; also called hNRP2

ErbB2-ECD = target: T5, ErbB2-ECD (UniProt P04626 23-652, limits assumed); experiment: as above
T5 construct: extracellular domain; Specificity control antigen

BSA = target: T6, BSA (UniProt P02769 25-607); experiment: as above
T6 construct: Specificity control antigen

murine NRP1 [5] = target: T1, murine NRP1; experiment: competitive phage ELISA, phage-displayed Fab'2, antigen in solution vs immobilized antigen
human NRP1 [6] = target: T2, human NRP1; experiment: as above
murine NRP1 [7] = target: T1, murine NRP1; experiment: competitive phage ELISA
human NRP1 [8] = target: T2, human NRP1; experiment: competitive phage ELISA
murine NRP2 [9] = target: T3, murine NRP2; experiment: BIAcore SPR, IgG immobilized on the chip, antigen injected at 500 nM (printed '500nm')
Procedure: as §1

human NRP2 [10] = target: T4, human NRP2; experiment: as above
Procedure: as §1

T1 sequence (P97333 22-641 limits assumed, form in doubt): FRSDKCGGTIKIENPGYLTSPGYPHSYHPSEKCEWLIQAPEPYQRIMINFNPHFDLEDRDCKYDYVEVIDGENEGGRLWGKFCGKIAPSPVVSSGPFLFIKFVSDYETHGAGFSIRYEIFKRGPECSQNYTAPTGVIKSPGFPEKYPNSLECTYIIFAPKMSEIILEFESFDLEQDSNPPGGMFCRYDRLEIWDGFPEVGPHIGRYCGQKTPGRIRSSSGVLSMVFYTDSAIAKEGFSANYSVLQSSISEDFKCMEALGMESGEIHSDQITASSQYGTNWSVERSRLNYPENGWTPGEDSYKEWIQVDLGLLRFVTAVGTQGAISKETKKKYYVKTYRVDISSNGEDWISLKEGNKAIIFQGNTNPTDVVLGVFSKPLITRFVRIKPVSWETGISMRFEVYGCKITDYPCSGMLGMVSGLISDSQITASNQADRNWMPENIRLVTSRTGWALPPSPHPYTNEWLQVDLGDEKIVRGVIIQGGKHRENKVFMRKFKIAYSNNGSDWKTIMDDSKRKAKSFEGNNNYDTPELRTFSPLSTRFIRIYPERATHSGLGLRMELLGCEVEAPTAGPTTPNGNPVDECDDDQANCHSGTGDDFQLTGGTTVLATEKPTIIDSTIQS
T4 sequence (O60462 23-864 limits assumed): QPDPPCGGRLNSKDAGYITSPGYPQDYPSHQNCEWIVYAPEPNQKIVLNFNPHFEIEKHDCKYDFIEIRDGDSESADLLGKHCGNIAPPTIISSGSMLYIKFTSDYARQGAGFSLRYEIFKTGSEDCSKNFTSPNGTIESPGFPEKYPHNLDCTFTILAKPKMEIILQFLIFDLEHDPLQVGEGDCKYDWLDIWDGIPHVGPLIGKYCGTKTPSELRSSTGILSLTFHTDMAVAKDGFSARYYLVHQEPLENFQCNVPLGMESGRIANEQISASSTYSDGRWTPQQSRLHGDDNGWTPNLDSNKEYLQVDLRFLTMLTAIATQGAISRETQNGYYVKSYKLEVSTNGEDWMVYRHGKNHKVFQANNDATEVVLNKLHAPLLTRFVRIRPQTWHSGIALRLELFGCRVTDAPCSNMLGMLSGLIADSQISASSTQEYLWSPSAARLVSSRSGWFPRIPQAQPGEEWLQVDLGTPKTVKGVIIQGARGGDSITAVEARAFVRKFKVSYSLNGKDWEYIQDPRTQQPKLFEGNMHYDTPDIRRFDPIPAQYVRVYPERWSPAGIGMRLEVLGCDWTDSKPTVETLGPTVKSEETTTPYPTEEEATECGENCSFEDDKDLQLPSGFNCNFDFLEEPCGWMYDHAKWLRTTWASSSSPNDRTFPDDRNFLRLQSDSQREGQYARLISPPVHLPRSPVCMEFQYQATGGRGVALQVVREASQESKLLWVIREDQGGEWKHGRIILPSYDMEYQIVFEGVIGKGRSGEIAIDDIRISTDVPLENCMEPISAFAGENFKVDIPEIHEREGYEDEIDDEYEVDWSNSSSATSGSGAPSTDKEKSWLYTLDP
T3 sequence (O35375 23-864 limits assumed): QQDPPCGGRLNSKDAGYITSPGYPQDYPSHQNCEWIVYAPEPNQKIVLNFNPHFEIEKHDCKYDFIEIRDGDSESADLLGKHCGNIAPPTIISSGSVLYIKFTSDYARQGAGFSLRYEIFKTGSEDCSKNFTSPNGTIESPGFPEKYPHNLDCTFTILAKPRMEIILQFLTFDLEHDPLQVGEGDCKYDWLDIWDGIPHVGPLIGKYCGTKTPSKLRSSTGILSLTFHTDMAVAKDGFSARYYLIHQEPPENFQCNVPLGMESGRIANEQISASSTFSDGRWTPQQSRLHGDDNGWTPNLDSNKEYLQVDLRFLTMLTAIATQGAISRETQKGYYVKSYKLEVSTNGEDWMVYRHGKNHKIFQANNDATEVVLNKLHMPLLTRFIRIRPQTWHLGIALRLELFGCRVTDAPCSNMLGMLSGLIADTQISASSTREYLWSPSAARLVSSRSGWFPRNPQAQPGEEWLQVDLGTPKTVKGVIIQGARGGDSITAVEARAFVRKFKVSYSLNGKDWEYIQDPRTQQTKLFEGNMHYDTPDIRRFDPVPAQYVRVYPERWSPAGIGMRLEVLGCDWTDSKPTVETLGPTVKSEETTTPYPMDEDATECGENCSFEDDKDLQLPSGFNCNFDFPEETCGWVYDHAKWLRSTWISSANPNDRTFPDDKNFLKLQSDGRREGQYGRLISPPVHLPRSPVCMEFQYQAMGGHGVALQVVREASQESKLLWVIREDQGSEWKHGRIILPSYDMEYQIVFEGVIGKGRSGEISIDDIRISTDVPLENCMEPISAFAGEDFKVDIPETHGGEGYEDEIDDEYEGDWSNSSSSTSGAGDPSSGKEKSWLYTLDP
T6 sequence (P02769 25-607 limits assumed): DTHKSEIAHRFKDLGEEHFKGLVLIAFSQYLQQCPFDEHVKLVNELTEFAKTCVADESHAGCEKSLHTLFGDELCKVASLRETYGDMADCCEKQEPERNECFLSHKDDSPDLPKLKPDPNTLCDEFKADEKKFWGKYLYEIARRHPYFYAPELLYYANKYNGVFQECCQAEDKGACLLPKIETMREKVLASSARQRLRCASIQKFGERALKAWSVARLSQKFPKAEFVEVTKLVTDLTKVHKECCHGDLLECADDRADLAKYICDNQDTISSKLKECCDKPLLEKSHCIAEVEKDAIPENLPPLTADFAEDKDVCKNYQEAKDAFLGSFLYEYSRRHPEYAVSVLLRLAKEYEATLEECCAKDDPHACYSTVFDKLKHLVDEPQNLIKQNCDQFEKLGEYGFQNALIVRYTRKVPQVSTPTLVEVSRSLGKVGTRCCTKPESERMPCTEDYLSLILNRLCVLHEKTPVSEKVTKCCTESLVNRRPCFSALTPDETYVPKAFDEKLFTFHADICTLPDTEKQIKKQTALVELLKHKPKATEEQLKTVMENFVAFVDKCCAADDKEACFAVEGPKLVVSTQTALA

Molecule | koff (murine NRP1 [1]) | kon (murine NRP1 [1]) | koff (human NRP1 [2]) | kon (human NRP1 [2]) | binding result (murine NRP2 [3]) | binding result (human NRP2 [4]) | binding result (ErbB2-ECD) | binding result (BSA) | IC50 (murine NRP1 [5]) | IC50 (human NRP1 [6]) | IC50 (murine NRP1 [7]) | IC50 (human NRP1 [8]) | Kd (murine NRP1 [1]) | Kd (human NRP1 [2]) | binding result (murine NRP2 [9]) | binding result (human NRP2 [10])
YW107.4 (antibody) | 0.0015 s⁻¹ | 140000 M⁻¹ s⁻¹ | 0.0011 s⁻¹ | 220000 M⁻¹ s⁻¹ |  |  |  |  |  |  |  |  |  |  |  | 
B1 | 0.00045 s⁻¹ | 60000 M⁻¹ s⁻¹ | 0.00012 s⁻¹ | 130000 M⁻¹ s⁻¹ | no binding (tested: 10 µg/ml) | no binding (tested: 10 µg/ml) | no binding (tested: 10 µg/ml) | no binding (tested: 10 µg/ml) | 3.4 nM | 0.48 nM | < 70 nM | < 70 nM | 7.8 nM | 0.9 nM |  | 
B2 |  |  |  |  |  |  |  |  |  |  |  |  |  |  | no binding (tested: 500 nM) | no binding (tested: 500 nM)
